The text below walks through data of publication PMC6008586, “Analysis of transition state mimicry by tight binding aminothiazoline inhibitors provides insight into catalysis by human O-GlcNAcase” (Chemical Science, 2016).

What all share (assay): Kinetic analysis of hOGA-catalysed hydrolysis of fluorogenic substrates
What all share (assay type): biochemical, human

Substrate in data set [1]: Cc1cc(=O)oc2cc(O[C@@H]3O[C@H](CO)[C@@H](O)[C@H](O)[C@H]3NC(N)=O)ccc12
As to conditions: other: estimated by non-linear regression, saturation of hOGA not observed, pH 7.4 PBS, 2.5% DMF, 37.0 °C. An excerpt: (§1) Given the greater than 100-fold increase in potency we observe for the 2′-aminothiazoline inhibitors over their thiazoline counterparts and their structural resemblance to the oxazoline intermediate found along the reaction coordinate of hOGA, we wanted to assess whether incorporation of the 2′-amino group benefitted binding through serendipitous interactions, or whether the presence of the charge included in this class of inhibitors also made them TS analogues. We therefore turned to using the Bartlett LFER approach. […] We started from 4-methylumbelliferyl 2-amino-2-deoxy-β-D-glucopyranoside hydrochloride (16) as a common intermediate.[54] Per-O-acetylated urea substrates 17a–e were prepared by reacting 16 with the appropriate alkylisocyanate in the presence of triethylamine, followed by Zemplen de-O-acetylation. With this series of substrates (18a–e) in hand we determined the kcat/Km values governing their hOGA catalyzed hydrolysis (ESI Table S1 ^†). […] In contrast, we find no correlation between log Ki values for the inhibitors and log Km values for the series of substrates (Fig. 6B). […]
(§2) Biological evaluation: Gene expression and protein purification. hOGA was expressed and purified according to the previously described procedure by Macauley et al.[5] hOGA was dialyzed twice against PBS buffer after purification and its concentration determined using the Nanodrop2000. Human β-hexosaminidase was obtained from Micheal Tropak at the Hospital for Sick Children in Toronto, without further purification.
(§3) Kinetic analysis of hOGA. All assays were carried out in 96 well plates (Thermoscientific, FloroNunc, lot # 139825) in PBS pH 7.4 buffer (0.03% BSA) in triplicate at 37°C for 20 minutes. A continuous assay procedure was performed in which the reactions were initiated by the addition of 4-MUGlcNAc substrate (50 µL or 100 µL via a multi-channel […]
(§4) The excitation and emission were 350 and 445 nm, respectively. The amount of fluorogenic substrate liberated was quantitatively assessed by using a standard curve for 4-methylumbelliferone under identical buffer conditions. A total of 6-8 inhibitor concentrations were tested, […]
(§5) The hOGA concentrations in the assays ranged from 0.8 nM to 20 nM, depending on whether the Ki being determined was through classic Michaelis-Menten methods or the Morrison Ki fit. For full Ki […]
(§6) For the Morrison Ki analyses, only one substrate concentration was used (at the Km) since the method of inhibition was already known from analysis using the Line-weaver Burke plots. The representative hOGA Ki plots are summarized in Supplemental Figures S1, S2 and S3. Kinetic analysis of substrates 18a-e were performed in triplicate using pH 7.4 PBS buffer (0.03% BSA) containing 2.5% DMF, with varying enzyme concentrations. The Michaelis-Menten curves for substrates 18a-e with hOGA are summarized in Supplemental Figure S6 and the kinetic parameters are described in Supplemental Table S1. […]
(§7) # 139825) at pH 4.25 (50 mM citrate, 100 mM NaCl, 0.03% BSA) at 37°C in triplicate for 20 minutes. Enzymatic reactions were triggered by addition of substrate (20 µL or 15 µL) in a total volume of 45 or 40 µL. Reactions were quenched by the addition of a 4-fold excess (160 or 180 µL) of quenching buffer (200 mM glycine, pH 10.75) in order to […]

Substrate in data set [2]: CCNC(=O)N[C@H]1[C@H](Oc2ccc3c(C)cc(=O)oc3c2)O[C@H](CO)[C@@H](O)[C@@H]1O
As to conditions: other: substrate of hOGA, pH 7.4 PBS, 2.5% DMF, 37.0 °C.
Excerpt: as §1, §2, §3, §4, §5, §6, §7

Substrate in data set [3]: CCCCNC(=O)N[C@H]1[C@H](Oc2ccc3c(C)cc(=O)oc3c2)O[C@H](CO)[C@@H](O)[C@@H]1O
To be noted: other: substrate of hOGA, pH 7.4 PBS, 2.5% DMF, 37.0 °C.
Excerpt: as §1, §2, §3, §4, §5, §6, §7

Substrate in data set [4]: CCCNC(=O)N[C@H]1[C@H](Oc2ccc3c(C)cc(=O)oc3c2)O[C@H](CO)[C@@H](O)[C@@H]1O
To be noted: other: substrate of hOGA, pH 7.4 PBS, 2.5% DMF, 37.0 °C.
Excerpt: as §1, §2, §3, §4, §5, §6, §7

Substrate in data set [5]: CNC(=O)N[C@H]1[C@H](Oc2ccc3c(C)cc(=O)oc3c2)O[C@H](CO)[C@@H](O)[C@@H]1O
To be noted: other: estimated by non-linear regression, saturation of hOGA not observed, pH 7.4 PBS, 2.5% DMF, 37.0 °C.
Excerpt: as §1, §2, §3, §4, §5, §6, §7

B1: hOGA (Homo sapiens) (protein)
chain: MVQKESQATLEERESELSSNPAASAGASLEPPAAPAPGEDNPAGAGGAAVAGAAGGARRFLCGVVEGFYGRPWVMEQRKELFRRLQKWELNTYLYAPKDDYKHRMFWREMYSVEEAEQLMTLISAAREYEIEFIYAISPGLDITFSNPKEVSTLKRKLDQVSQFGCRSFALLFDDIDHNMCAADKEVFSSFAHAQVSITNEIYQYLGEPETFLFCPTEYCGTFCYPNVSQSPYLRTVGEKLLPGIEVLWTGPKVVSKEIPVESIEEVSKIIKRAPVIWDNIHANDYDQKRLFLGPYKGRSTELIPRLKGVLTNPNCEFEANYVAIHTLATWYKSNMNGVRKDVVMTDSEDSTVSIQIKLENEGSDEDIETDVLYSPQMALKLALTEWLQEFGVPHQYSSRQVAHSGAKASVVDGTPLVAAPSLNATTVVTTVYQEPIMSQGAALSGEPTTLTKEEEKKQPDEEPMDMVVEKQEETDHKNDNQILSEIVEAKMAEELKPMDTDKESIAESKSPEMSMQEDCISDIAPMQTDEQTNKEQFVPGPNEKPLYTAEPVTLEDLQLLADLFYLPYEHGPKGAQMLREFQWLRANSSVVSVNCKGKDSEKIEEWRSRAAKFEEMCGLVMGMFTRLSNCANRTILYDMYSYVWDIKSIMSMVKSFVQWLGCRSHSSAQFLIGDQEPWAFRGGLAGEFQRLLPIDGANDLFFQPPPLTPTSKVYTIRPYFPKDEASVYKICREMYDDGVGLPFQSQPDLIGDKLVGGLLSLSLDYCFVLEDEDGICGYALGTVDVTPFIKKCKISWIPFMQEKYTKPNGDKELSEAEKIMLSFHEEQEVLPETFLANFPSLIKMDIHKKVTDPSVAKSMMACLLSSLKANGSRGAFCEVRPDDKRILEFYSKLGCFEIAKMEGFPKDVVILGRSL
notes: made in house
One may read the Km as the concentration of substrate that gives half-maximal velocity. As for B1, the Michaelis constant (Km) in data set [1] is listed as 1265 ± 259 µM; in data set [2], 85 ± 20 µM; in data set [3], 30 ± 3 µM; in data set [4], 120 ± 11 µM; in data set [5], 1825 ± 542 µM.
